This is an account of results in the supplement of paper PMC5998384.

For series [1], the system named is HeLa Kyoto. Briefly: thermal stability score vs G1/S (z-score of summed log2 fold changes over temperatures); higher = more thermally stable than in G1/S.
In series [2] the test system is HeLa Kyoto. Briefly: solubility in G1/S (NP-40 vs SDS abundance) (log2 ratio); higher = more soluble. Conditions: cell cycle stage: G1/S.
In series [3] the test system is HeLa Kyoto. In words: melting temperature (median over replicates), in situ; higher = more thermally stable.
Series [4] relates to HeLa Kyoto. Briefly: solubility change mitosis vs G1/S (difference of NP-40 vs SDS log2 ratios) (log2 ratio difference); higher = more soluble in mitosis.
Where [5] appears, read: cell cycle stage: early G1 (4.5 h after nocodazole release).
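Wherever melting temperature (median over replicates), in situ is given: HeLa Kyoto cells synchronized by double thymidine or nocodazole block, proteins quantified by TMT10plex mass spectrometry, three independent biological replicates.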
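Wherever solubility change mitosis vs G1/S (difference of NP-40 vs SDS log2 ratios) is given: synchronized HeLa Kyoto cells (double thymidine block for G1/S, nocodazole release for mitosis), protein amounts in NP-40 versus SDS lysates quantified by mass spectrometry, three biological replicates.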
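Wherever solubility in G1/S (NP-40 vs SDS abundance) is given: HeLa Kyoto cells arrested at G1/S by double thymidine block, proteins quantified by TMT10plex mass spectrometry in mild NP-40 versus SDS extracts, three biological replicates.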
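Wherever thermal stability score vs G1/S (z-score of summed log2 fold changes over temperatures) is given: synchronized HeLa Kyoto cells, proteins quantified by TMT10plex mass spectrometry, three biological replicates, mitosis taken 0.5 h after nocodazole release, G1/S directly after double thymidine block.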

For the sequence “MAAPEEHDSPTEASQPIVEEEETKTFKDLGVTDVLCEACDQLGWTKPTKIQIEAIPLALQGRDIIGLAETGSGKTGAFALPILNALLETPQRLFALVLTPTRELAFQISEQFEALGSSIGVQSAVIVGGIDSMSQSLALAKKPHIIIATPGRLIDHLENTKGFNLRALKYLVMDEADRILNMDFETEVDKILKVIPRDRKTFLFSATMTKKVQKLQRAALKNPVKCAVSSKYQTVEKLQQYYIFIPSKFKDTYLVYILNELAGNSFMIFCSTCNNTQRTALLLRNLGFTAIPLHGQMSQSKRLGSLNKFKAKARSILLATDVASRGLDIPHVDVVVNFDIPTHSKDYIHRVGRTARAGRSGKAITFVTQYDVELFQRIEHLIGKKLPGFPTQDDEVMMLTERVAEAQRFARMELREHGEKKKRSREDAGDNDDTEGAIGVRNKVAGGKMKKRKGR [DDX47]”, the thermal stability score turned out to be 0.865 in series [1] (setting [5]) and 1.97 in series [1] (cell cycle stage: mitosis). The “solubility in G1/S (log2)” value in series [2] is -1.22. The melting temperature came to 50.9 °C in series [3] (cell cycle stage: G1/S) and 51.3 °C in series [3] (cell cycle stage: mitosis). In addition, in series [4], the “solubility change mitosis (log2)” value was 0.607.

As to “MRVAAATAAAGAGPAMAVWTRATKAGLVELLLRERWVRVVAELSGESLSLTGDAAAAELEPALGPAAAAFNGLPNGGGAGDSLPGSPSRGLGPPSPPAPPRGPAGEAGASPPVRRVRVVKQEAGGLGISIKGGRENRMPILISKIFPGLAADQSRALRLGDAILSVNGTDLRQATHDQAVQALKRAGKEVLLEVKFIREVTPYIKKPSLVSDLPWEGAAPQSPSFSGSEDSGSPKHQNSTKDRKIIPLKMCFAARNLSMPDLENRLIELHSPDSRNTLILRCKDTATAHSWFVAIHTNIMALLPQVLAELNAMLGATSTAGGSKEVKHIAWLAEQAKLDGGRQQWRPVLMAVTEKDLLLYDCMPWTRDAWASPCHSYPLVATRLVHSGSGCRSPSLGSDLTFATRTGSRQGIEMHLFRVETHRDLSSWTRILVQGCHAAAELIKEVSLGCMLNGQEVRLTIHYENGFTISRENGGSSSILYRYPFERLKMSADDGIRNLYLDFGGPEGELTMDLHSCPKPIVFVLHTFLSAKVTRMGLLV [SNTB2]”, the thermal stability score amounted to 0.506 in series [1] (setting [5]) and 0.99 in series [1] (cell cycle stage: mitosis). Moreover, the “solubility in G1/S (log2)” value in series [2] is -0.0262. Moreover, the melting temperature in series [3] (cell cycle stage: G1/S) amounted to 49.4 °C; in series [3] (cell cycle stage: mitosis), 50.3 °C. Besides, in series [4], the “solubility change mitosis (log2)” value is 0.0092.

As for “MAAGGGGGSSKASSSSASSAGALESSLDRKFQSVTNTMESIQGLSSWCIENKKHHSTIVYHWMKWLRRSAYPHRLNLFYLANDVIQNCKRKNAIIFRESFADVLPEAAALVKDPSVSKSVERIFKIWEDRNVYPEEMIVALREALSTTFKTQKQLKENLNKQPNKQWKKSQTSTNPKAALKSKIVAEFRSQALIEELLLYKRSEDQIELKEKQLSTMRVDVCSTETLKCLKDKTGGKKFSKEFEEASSKLEEFVNGLDKQVKNGPSLTEALENAGIFYEAQYKEVKVVANAYKTFANRVNNLKKKLDQLKSTLPDPEESPVPSPSMDAPSPTGSESPFQGMGGEESQSPTMESEKSATPEPVTDNRDVEDMELSDVEDDGSKIIVEDRKEKPAEKSAVSTSVPTKPTENISKASSCTPVPVTMTATPPLPKPVNTSLSPSPALALPNLANVDLAKISSILSSLTSVMKNTGVSPASRPSPGTPTSPSNLTSGLKTPAPATTTSHNPLANILSKVEITPESILSALSKTQTQSAPALQGLSSLLQSVTGNPVPASEAASQSTSASPANTTVSTIKGRNLPSSAQPFIPKSFNYSPNSSTSEVSSTSASKASIGQSPGLPSTTFKLPSNSLGFTATHNTSPAAPPTEVTICQSSEVSKPKLESESTSPSLEMKIHNFLKGNPGFSGLNLNIPILSSLGSSAPSESHPSDFQRGPTSTSIDNIDGTPVRDERSGTPTQDEMMDKPTSSSVDTMSLLSKIISPGSSTPSSTRSPPPGRDESYPRELSNSVSTYRPFGLGSESPYKQPSDGMERPSSLMDSSQEKFYPDTSFQEDEDYRDFEYSGPPPSAMMNLEKKPAKSILKSSKLSDTTEYQPILSSYSHRAQEFGVKSAFPPSVRALLDSSENCDRLSSSPGLFGAFSVRGNEPGSDRSPSPSKNDSFFTPDSNHNSLSQSTTGHLSLPQKQYPDSPHPVPHRSLFSPQNTLAAPTGHPPTSGVEKVLASTISTTSTIEFKNMLKNASRKPSDDKHFGQAPSKGTPSDGVSLSNLTQPSLTATDQQQQEEHYRIETRVSSSCLDLPDSTEEKGAPIETLGYHSASNRRMSGEPIQTVESIRVPGKGNRGHGREASRVGWFDLSTSGSSFDNGPSSASELASLGGGGSGGLTGFKTAPYKERAPQFQESVGSFRSNSFNSTFEHHLPPSPLEHGTPFQREPVGPSSAPPVPPKDHGGIFSRDAPTHLPSVDLSNPFTKEAALAHAAPPPPPGEHSGIPFPTPPPPPPPGEHSSSGGSGVPFSTPPPPPPPVDHSGVVPFPAPPLAEHGVAGAVAVFPKDHSSLLQGTLAEHFGVLPGPRDHGGPTQRDLNGPGLSRVRESLTLPSHSLEHLGPPHGGGGGGGSNSSSGPPLGPSHRDTISRSGIILRSPRPDFRPREPFLSRDPFHSLKRPRPPFARGPPFFAPKRPFFPPRY [RPRD2]”, the thermal stability score was 2.07 in series [1] (setting [5]) and 4.95 in series [1] (cell cycle stage: mitosis). For the same sequence, the “solubility in G1/S (log2)” value in series [2] is -0.0214. The results for the melting temperature in series [3] (cell cycle stage: G1/S) and in series [3] (cell cycle stage: mitosis) were 48 °C and 49.2 °C, respectively. The “solubility change mitosis (log2)” value in series [4] was 0.0816.

Consider “MERAAPSRRVPLPLLLLGGLALLAAGVDADVLLEACCADGHRMATHQKDCSLPYATESKECRMVQEQCCHSQLEELHCATGISLANEQDRCATPHGDNASLEATFVKRCCHCCLLGRAAQAQGQSCEYSLMVGYQCGQVFQACCVKSQETGDLDVGGLQETDKIIEVEEEQEDPYLNDRCRGGGPCKQQCRDTGDEVVCSCFVGYQLLSDGVSCEDVNECITGSHSCRLGESCINTVGSFRCQRDSSCGTGYELTEDNSCKDIDECESGIHNCLPDFICQNTLGSFRCRPKLQCKSGFIQDALGNCIDINECLSISAPCPIGHTCINTEGSYTCQKNVPNCGRGYHLNEEGTRCVDVDECAPPAEPCGKGHRCVNSPGSFRCECKTGYYFDGISRMCVDVNECQRYPGRLCGHKCENTLGSYLCSCSVGFRLSVDGRSCEDINECSSSPCSQECANVYGSYQCYCRRGYQLSDVDGVTCEDIDECALPTGGHICSYRCINIPGSFQCSCPSSGYRLAPNGRNCQDIDECVTGIHNCSINETCFNIQGGFRCLAFECPENYRRSAATLQQEKTDTVRCIKSCRPNDVTCVFDPVHTISHTVISLPTFREFTRPEEIIFLRAITPPHPASQANIIFDITEGNLRDSFDIIKRYMDGMTVGVVRQVRPIVGPFHAVLKLEMNYVVGGVVSHRNVVNVHIFVSEYWF [FBLN1]”, for which the results for the thermal stability score in series [1] (setting [5]) and in series [1] (cell cycle stage: mitosis) were 1.49 and 0.0681, respectively. In addition, the “solubility in G1/S (log2)” value in series [2] was -0.102. Also, the melting temperature in series [3] (cell cycle stage: G1/S) came out at 54 °C; in series [3] (cell cycle stage: mitosis), 55.4 °C. In series [4], the “solubility change mitosis (log2)” value was -0.045.

In the case of “MAAPGSCALWSYCGRGWSRAMRGCQLLGLRSSWPGDLLSARLLSQEKRAAETHFGFETVSEEEKGGKVYQVFESVAKKYDVMNDMMSLGIHRVWKDLLLWKMHPLPGTQLLDVAGGTGDIAFRFLNYVQSQHQRKQKRQLRAQQNLSWEEIAKEYQNEEDSLGGSRVVVCDINKEMLKVGKQKALAQGYRAGLAWVLGDAEELPFDDDKFDIYTIAFGIRNVTHIDQALQEAHRVLKPGGRFLCLEFSQVNNPLISRLYDLYSFQVIPVLGEVIAGDWKSYQYLVESIRRFPSQEEFKDMIEDAGFHKVTYESLTSGIVAIHSGFKL [COQ5]”, the values for the thermal stability score in series [1] (setting [5]) and in series [1] (cell cycle stage: mitosis) were -1.07 and -0.586, respectively. In addition, in series [2], the “solubility in G1/S (log2)” value is -0.0892. The melting temperature in series [3] (cell cycle stage: G1/S) worked out at 54.4 °C; in series [3] (cell cycle stage: mitosis), 56.3 °C. Besides, in series [4], the “solubility change mitosis (log2)” value came to 0.0212.
